The conditions of the series: pH 7, CD, transition: 2, reversible: yes, whole UniProt chain shown; for denaturant midpoint (higher = more stable): 25 °C, GdnHCl; for Tm: Thermal.
[1] abbreviates: Rattus norvegicus, potassium phosphate buffer.

Values joined by “and” are separate entries in the source; they are usually repeats but may differ in a detail not shown here. Equal entries are not always repeated.

B1: Cytochrome b5 type B wild type, P04166 (protein)
chain: MATPEASGSGRNGQGSDPAVTYYRLEEVAKRNTAEETWMVIHGRVYDITRFLSEHPGGEEVLLEQAGADATESFEDVGHSPDAREMLKQYYIGDVHPNDLKPKDGDKDPSKNNSCQSSWAYWIVPIVGAILIGFLYRHFWADSKSS
As for B1, under setting [1], the “denaturant midpoint (higher = more stable)” value is 4.09 M and 4.03 M; the Tm stood at 87 °C.

B2: Cytochrome b5 wild type, P00171 (protein)
chain: MAEESSKAVKYYTLEEIQKHNNSKSTWLILHYKVYDLTKFLEEHPGGEEVLREQAGGDATENFEDVGHSTDARELSKTFIIGELHPDDRSKITKPSESIITTIDSNPSWWTNWLIPAISALFVALIYHLYTSEN
Consider B2, for which, where the note is “Bos taurus, MOPS buffer”, the “denaturant midpoint (higher = more stable)” value is 2.99 M and 3.05 M; the Tm came out at 73.1 °C.

The values are drawn from FireProtDB (doi:10.1021/bi010636i).
